# Results: IntAct's records for PubMed 29426014
# B1: Ubiquitin-protein ligase (Homo sapiens), Q05086-1 (parent)
# chain: MEKLHQCYWKSGEPQSDDIEASRMKRAAAKHLIERYYHQLTEGCGNEACTNEFCASCPTFLRMDNNAAAIKALELYKINAKLCDPHPSKKGASSAYLENSKGAPNNSCSEIKMNKKGARIDFKDVTYLTEEKVYEILELCREREDYSPLIRVIGRVFSSAEALVQSFRKVKQHTKEELKSLQAKDEDKDEDEKEKAACSAAAMEEDSEASSSRIGDSSQGDNNLQKLGPDDVSVDIDAIRRVYTRLLSNEKIETAFLNALVYLSPNVECDLTYHNVYSRDPNYLNLFIIVMENRNLHSPEYLEMALPLFCKAMSKLPLAAQGKLIRLWSKYNADQIRRMMETFQQLITYKVISNEFNSRNLVNDDDAIVAASKCLKMVYYANVVGGEVDTNHNEEDDEEPIPESSELTLQELLGEERRNKKGPRVDPLETELGVKTLDCRKPLIPFEEFINEPLNEVLEMDKDYTFFKVETENKFSFMTCPFILNAVTKNLGLYYDNRIRMYSERRITVLYSLVQGQQLNPYLRLKVRRDHIIDDALVRLEMIAMENPADLKKQLYVEFEGEQGVDEGGVSKEFFQLVVEEIFNPDIGMFTYDESTKLFWFNPSSFETEGQFTLIGIVLGLAIYNNCILDVHFPMVVYRKLMGKKGTFRDLGDSHPVLYQSLKDLLEYEGNVEDDMMITFQISQTDLFGNPMMYDLKENGDKIPITNENRKEFVNLYSDYILNKSVEKQFKAFRRGFHMVTNESPLKYLFRPEEIELLICGSRNLDFQALEETTEYDGGYTRDSVLIREFWEIVHSFTDEQKRLFLQFTTGTDRAPVGGLGKLKMIIAKNGPDTERLPTSHTCFNVLLLPEYSSKEKLKERLLKAITYAKGFGML
# partner: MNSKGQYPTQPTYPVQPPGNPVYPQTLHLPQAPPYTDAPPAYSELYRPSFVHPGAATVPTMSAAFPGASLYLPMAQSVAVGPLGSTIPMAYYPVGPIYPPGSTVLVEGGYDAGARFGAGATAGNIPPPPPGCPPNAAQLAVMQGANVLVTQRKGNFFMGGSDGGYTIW
# B2: Ubiquitin-protein ligase (Homo sapiens), Q05086-1 (parent)
# chain: B1 chain
# partner: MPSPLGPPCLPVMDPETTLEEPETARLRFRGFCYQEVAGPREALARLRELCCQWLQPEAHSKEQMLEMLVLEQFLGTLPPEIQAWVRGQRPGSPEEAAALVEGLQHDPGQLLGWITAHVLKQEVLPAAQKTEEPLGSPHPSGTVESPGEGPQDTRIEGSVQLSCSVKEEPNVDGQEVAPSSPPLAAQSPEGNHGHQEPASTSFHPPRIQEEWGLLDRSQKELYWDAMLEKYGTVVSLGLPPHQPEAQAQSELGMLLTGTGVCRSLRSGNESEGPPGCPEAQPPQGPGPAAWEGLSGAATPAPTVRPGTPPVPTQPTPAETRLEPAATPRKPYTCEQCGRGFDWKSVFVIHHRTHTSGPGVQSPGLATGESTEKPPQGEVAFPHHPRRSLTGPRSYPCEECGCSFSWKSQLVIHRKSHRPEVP
# B3: Ubiquitin-protein ligase (Homo sapiens), Q05086-2 (parent)
# chain: MKRAAAKHLIERYYHQLTEGCGNEACTNEFCASCPTFLRMDNNAAAIKALELYKINAKLCDPHPSKKGASSAYLENSKGAPNNSCSEIKMNKKGARIDFKDVTYLTEEKVYEILELCREREDYSPLIRVIGRVFSSAEALVQSFRKVKQHTKEELKSLQAKDEDKDEDEKEKAACSAAAMEEDSEASSSRIGDSSQGDNNLQKLGPDDVSVDIDAIRRVYTRLLSNEKIETAFLNALVYLSPNVECDLTYHNVYSRDPNYLNLFIIVMENRNLHSPEYLEMALPLFCKAMSKLPLAAQGKLIRLWSKYNADQIRRMMETFQQLITYKVISNEFNSRNLVNDDDAIVAASKCLKMVYYANVVGGEVDTNHNEEDDEEPIPESSELTLQELLGEERRNKKGPRVDPLETELGVKTLDCRKPLIPFEEFINEPLNEVLEMDKDYTFFKVETENKFSFMTCPFILNAVTKNLGLYYDNRIRMYSERRITVLYSLVQGQQLNPYLRLKVRRDHIIDDALVRLEMIAMENPADLKKQLYVEFEGEQGVDEGGVSKEFFQLVVEEIFNPDIGMFTYDESTKLFWFNPSSFETEGQFTLIGIVLGLAIYNNCILDVHFPMVVYRKLMGKKGTFRDLGDSHPVLYQSLKDLLEYEGNVEDDMMITFQISQTDLFGNPMMYDLKENGDKIPITNENRKEFVNLYSDYILNKSVEKQFKAFRRGFHMVTNESPLKYLFRPEEIELLICGSRNLDFQALEETTEYDGGYTRDSVLIREFWEIVHSFTDEQKRLFLQFTTGTDRAPVGGLGKLKMIIAKNGPDTERLPTSHTCFNVLLLPEYSSKEKLKERLLKAITYAKGFGML
# partner: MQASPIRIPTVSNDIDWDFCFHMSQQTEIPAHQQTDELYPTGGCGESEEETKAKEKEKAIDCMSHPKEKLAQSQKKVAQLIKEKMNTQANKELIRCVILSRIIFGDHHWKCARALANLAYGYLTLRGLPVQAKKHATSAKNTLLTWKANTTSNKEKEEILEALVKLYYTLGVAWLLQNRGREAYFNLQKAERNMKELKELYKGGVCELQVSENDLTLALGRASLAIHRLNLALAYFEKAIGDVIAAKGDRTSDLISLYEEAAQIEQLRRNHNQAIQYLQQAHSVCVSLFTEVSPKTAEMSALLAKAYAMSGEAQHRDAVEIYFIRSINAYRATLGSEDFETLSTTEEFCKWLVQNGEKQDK
# B4: Ubiquitin-protein ligase (Homo sapiens), Q05086-1 (parent)
# chain: B1 chain
# partner: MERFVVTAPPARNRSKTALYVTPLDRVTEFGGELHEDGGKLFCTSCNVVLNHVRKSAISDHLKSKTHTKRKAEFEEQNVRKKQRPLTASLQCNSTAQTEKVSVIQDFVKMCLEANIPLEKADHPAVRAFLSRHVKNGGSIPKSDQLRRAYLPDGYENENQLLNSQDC
# B5: Ubiquitin-protein ligase (Homo sapiens), Q05086-1 (parent)
# chain: B1 chain
# partner: B3 partner
# B6: Ubiquitin-protein ligase (Homo sapiens), Q05086-3 (parent)
# chain: MATACKRSGEPQSDDIEASRMKRAAAKHLIERYYHQLTEGCGNEACTNEFCASCPTFLRMDNNAAAIKALELYKINAKLCDPHPSKKGASSAYLENSKGAPNNSCSEIKMNKKGARIDFKDVTYLTEEKVYEILELCREREDYSPLIRVIGRVFSSAEALVQSFRKVKQHTKEELKSLQAKDEDKDEDEKEKAACSAAAMEEDSEASSSRIGDSSQGDNNLQKLGPDDVSVDIDAIRRVYTRLLSNEKIETAFLNALVYLSPNVECDLTYHNVYSRDPNYLNLFIIVMENRNLHSPEYLEMALPLFCKAMSKLPLAAQGKLIRLWSKYNADQIRRMMETFQQLITYKVISNEFNSRNLVNDDDAIVAASKCLKMVYYANVVGGEVDTNHNEEDDEEPIPESSELTLQELLGEERRNKKGPRVDPLETELGVKTLDCRKPLIPFEEFINEPLNEVLEMDKDYTFFKVETENKFSFMTCPFILNAVTKNLGLYYDNRIRMYSERRITVLYSLVQGQQLNPYLRLKVRRDHIIDDALVRLEMIAMENPADLKKQLYVEFEGEQGVDEGGVSKEFFQLVVEEIFNPDIGMFTYDESTKLFWFNPSSFETEGQFTLIGIVLGLAIYNNCILDVHFPMVVYRKLMGKKGTFRDLGDSHPVLYQSLKDLLEYEGNVEDDMMITFQISQTDLFGNPMMYDLKENGDKIPITNENRKEFVNLYSDYILNKSVEKQFKAFRRGFHMVTNESPLKYLFRPEEIELLICGSRNLDFQALEETTEYDGGYTRDSVLIREFWEIVHSFTDEQKRLFLQFTTGTDRAPVGGLGKLKMIIAKNGPDTERLPTSHTCFNVLLLPEYSSKEKLKERLLKAITYAKGFGML
# partner: B4 partner
# B7: Ubiquitin-protein ligase (Homo sapiens), Q05086-2 (parent)
# chain: B3 chain
# partner: B2 partner
# B8: Ubiquitin-protein ligase (Homo sapiens), Q05086-2 (parent)
# chain: B3 chain
# partner: B4 partner
# B9: Ubiquitin-protein ligase (Homo sapiens), Q05086-1 (parent)
# chain: B1 chain
# B10: Ubiquitin-protein ligase (Homo sapiens), Q05086-1 (parent)
# chain: B1 chain
# partner: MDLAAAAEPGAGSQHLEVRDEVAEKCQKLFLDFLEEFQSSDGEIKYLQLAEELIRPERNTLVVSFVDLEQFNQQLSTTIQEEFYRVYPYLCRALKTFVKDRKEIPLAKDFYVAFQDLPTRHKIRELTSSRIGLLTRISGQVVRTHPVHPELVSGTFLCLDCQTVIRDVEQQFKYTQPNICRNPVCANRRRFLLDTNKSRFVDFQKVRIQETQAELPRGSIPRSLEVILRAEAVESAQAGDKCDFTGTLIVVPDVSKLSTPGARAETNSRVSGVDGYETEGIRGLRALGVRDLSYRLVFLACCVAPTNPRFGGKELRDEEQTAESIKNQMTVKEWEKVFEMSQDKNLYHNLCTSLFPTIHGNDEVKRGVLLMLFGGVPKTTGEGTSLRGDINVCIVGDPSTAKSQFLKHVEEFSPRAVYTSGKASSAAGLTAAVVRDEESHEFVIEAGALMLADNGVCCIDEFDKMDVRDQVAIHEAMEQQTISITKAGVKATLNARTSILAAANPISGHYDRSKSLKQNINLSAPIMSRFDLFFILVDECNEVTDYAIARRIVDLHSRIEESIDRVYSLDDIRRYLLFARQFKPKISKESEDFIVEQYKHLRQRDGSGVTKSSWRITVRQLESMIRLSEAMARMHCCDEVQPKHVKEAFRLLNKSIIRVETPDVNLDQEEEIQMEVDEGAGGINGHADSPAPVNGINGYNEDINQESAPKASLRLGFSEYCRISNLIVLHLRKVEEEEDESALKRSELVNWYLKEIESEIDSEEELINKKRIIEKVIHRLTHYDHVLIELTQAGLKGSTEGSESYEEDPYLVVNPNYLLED
# B11: Ubiquitin-protein ligase (Homo sapiens), Q05086-2 (parent)
# chain: B3 chain
# partner: B1 partner
# B12: Ubiquitin-protein ligase (Homo sapiens), Q05086-3 (parent)
# chain: B6 chain
# partner: B1 partner
# Variants of: B1
# Settings: with DAZAP2, Q15038-1
row,effect of a mutation on the interaction,Variant
1,causing an interaction,C843A

# Variants of: B2
# Settings: with ZNF446, Q9NWS9-2
row,effect of a mutation on the interaction,Variant
1,causing an interaction,C843A

# Variants of: B3
# Settings: with TTC23L
row,effect of a mutation on the interaction,Variant
1,causing an interaction,C820A

# Variants of: B4
# Settings: with cgbp1_human CGGBP1, Q9UFW8
row,effect of a mutation on the interaction,Variant
1,causing an interaction,C843A

# Variants of: B5
# Settings: with TTC23L
row,effect of a mutation on the interaction,Variant
1,causing an interaction,C843A

# Variants of: B6
# Settings: with cgbp1_human CGGBP1, Q9UFW8
row,effect of a mutation on the interaction,Variant
1,causing an interaction,C840A

# Variants of: B7
# Settings: with ZNF446, Q9NWS9-2
row,effect of a mutation on the interaction,Variant
1,causing an interaction,C820A

# Variants of: B8
# Settings: with cgbp1_human CGGBP1, Q9UFW8
row,effect of a mutation on the interaction,Variant
1,causing an interaction,C820A

# Variants of: B9
# Settings: with ZNF250, P15622-3
# Sequence of ZNF250, P15622-3 (P15622 other isoform, or with tags, fused parts or gaps): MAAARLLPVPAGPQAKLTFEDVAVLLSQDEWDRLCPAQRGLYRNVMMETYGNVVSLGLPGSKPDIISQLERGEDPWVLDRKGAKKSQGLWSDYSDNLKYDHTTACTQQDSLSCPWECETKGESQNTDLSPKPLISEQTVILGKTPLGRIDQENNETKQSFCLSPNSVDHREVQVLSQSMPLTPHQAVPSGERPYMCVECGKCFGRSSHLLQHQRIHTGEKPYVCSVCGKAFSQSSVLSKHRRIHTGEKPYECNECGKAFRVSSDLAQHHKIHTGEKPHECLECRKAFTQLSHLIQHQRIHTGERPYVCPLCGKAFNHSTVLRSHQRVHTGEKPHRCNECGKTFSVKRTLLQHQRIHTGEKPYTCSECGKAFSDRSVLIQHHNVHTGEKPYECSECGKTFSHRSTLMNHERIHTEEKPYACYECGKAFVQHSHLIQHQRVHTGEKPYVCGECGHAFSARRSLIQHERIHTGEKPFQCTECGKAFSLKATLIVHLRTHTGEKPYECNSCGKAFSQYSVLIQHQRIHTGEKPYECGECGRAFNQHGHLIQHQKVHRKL
row,effect of a mutation on the interaction,Variant
1,causing an interaction,C843A

# Variants of: B9
# Settings: with PAX6, P26367-1
# Sequence of PAX6, P26367-1 (P26367 whole entry): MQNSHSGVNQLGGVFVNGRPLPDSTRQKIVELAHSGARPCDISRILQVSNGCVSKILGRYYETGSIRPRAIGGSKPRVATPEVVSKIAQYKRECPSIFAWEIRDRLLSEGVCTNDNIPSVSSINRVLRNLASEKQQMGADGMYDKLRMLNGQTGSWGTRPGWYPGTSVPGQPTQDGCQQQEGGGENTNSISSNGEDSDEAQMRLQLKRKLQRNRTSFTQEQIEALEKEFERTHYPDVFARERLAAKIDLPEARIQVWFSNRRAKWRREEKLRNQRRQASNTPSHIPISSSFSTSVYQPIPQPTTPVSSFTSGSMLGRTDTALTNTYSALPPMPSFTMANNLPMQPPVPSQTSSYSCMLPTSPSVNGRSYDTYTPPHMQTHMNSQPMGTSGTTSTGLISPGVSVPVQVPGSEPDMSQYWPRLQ
row,effect of a mutation on the interaction,Variant
1,causing an interaction,C843A

# Variants of: B9
# Settings: with magac_human MAGEA12, P43365
# Sequence of magac_human MAGEA12, P43365 (P43365 whole entry): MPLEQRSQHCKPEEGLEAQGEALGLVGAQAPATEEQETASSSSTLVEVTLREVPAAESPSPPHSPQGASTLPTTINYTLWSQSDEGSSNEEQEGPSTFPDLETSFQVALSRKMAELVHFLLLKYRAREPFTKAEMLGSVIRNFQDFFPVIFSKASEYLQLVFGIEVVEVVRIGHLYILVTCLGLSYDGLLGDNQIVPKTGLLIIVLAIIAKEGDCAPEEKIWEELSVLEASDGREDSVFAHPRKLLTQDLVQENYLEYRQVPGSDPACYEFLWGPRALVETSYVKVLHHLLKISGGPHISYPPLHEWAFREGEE
row,effect of a mutation on the interaction,Variant
1,causing an interaction,C843A

# Variants of: B9
# Settings: with PSMD4, P55036-1
# Sequence of PSMD4, P55036-1 (P55036 whole entry): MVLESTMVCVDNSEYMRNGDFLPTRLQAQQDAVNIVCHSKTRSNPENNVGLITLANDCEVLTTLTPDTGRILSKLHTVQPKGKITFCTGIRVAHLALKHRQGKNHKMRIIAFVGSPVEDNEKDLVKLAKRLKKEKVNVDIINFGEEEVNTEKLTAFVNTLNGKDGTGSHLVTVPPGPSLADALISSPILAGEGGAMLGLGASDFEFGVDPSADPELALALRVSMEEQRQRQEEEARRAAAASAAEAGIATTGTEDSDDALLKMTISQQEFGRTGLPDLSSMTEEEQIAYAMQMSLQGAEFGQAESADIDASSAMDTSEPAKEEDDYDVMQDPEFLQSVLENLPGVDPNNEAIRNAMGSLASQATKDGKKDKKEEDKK
row,effect of a mutation on the interaction,Variant
1,with no effect,C843A

# Variants of: B9
# Settings: with PAX5, Q02548-1
# Sequence of PAX5, Q02548-1 (Q02548 whole entry): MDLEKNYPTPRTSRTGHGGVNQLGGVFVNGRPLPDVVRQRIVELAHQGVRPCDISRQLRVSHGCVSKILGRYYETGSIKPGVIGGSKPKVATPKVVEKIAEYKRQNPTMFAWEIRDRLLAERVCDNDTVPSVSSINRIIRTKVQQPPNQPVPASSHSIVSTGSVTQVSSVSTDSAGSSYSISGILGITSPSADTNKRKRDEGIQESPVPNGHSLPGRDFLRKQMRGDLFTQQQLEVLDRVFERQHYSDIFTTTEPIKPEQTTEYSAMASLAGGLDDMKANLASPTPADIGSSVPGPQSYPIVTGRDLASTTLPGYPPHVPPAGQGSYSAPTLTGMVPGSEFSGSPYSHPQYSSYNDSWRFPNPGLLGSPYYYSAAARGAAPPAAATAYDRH
row,effect of a mutation on the interaction,Variant
1,causing an interaction,C843A

# Variants of: B9
# Settings: with PTCD3, Q96EY7-1
row,effect of a mutation on the interaction,Variant
1,with no effect,C843A

# Variants of: B9
# Settings: with ubql2_human UBQLN2, Q9UHD9
# Sequence of ubql2_human UBQLN2, Q9UHD9 (Q9UHD9 whole entry): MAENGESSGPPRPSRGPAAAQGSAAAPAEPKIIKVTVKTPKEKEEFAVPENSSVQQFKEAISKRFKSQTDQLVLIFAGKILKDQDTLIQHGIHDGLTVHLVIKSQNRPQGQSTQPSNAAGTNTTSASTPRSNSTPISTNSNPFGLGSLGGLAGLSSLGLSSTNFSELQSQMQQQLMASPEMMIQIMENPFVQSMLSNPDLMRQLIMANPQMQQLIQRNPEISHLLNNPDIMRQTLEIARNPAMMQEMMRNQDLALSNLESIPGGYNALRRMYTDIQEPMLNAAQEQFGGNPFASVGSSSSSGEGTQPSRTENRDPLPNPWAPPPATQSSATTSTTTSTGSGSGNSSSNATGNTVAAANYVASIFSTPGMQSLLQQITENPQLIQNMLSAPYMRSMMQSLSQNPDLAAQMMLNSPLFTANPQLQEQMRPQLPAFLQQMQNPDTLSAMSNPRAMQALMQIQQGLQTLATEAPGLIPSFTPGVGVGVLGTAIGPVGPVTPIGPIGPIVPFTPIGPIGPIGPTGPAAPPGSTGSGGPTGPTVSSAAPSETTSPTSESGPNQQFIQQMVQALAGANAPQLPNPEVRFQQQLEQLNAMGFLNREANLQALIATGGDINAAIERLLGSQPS
row,effect of a mutation on the interaction,Variant
1,with no effect,C843A

# Variants of: B9
# Settings: with UBQLN1, Q9UMX0-1
# Sequence of UBQLN1, Q9UMX0-1 (Q9UMX0 whole entry): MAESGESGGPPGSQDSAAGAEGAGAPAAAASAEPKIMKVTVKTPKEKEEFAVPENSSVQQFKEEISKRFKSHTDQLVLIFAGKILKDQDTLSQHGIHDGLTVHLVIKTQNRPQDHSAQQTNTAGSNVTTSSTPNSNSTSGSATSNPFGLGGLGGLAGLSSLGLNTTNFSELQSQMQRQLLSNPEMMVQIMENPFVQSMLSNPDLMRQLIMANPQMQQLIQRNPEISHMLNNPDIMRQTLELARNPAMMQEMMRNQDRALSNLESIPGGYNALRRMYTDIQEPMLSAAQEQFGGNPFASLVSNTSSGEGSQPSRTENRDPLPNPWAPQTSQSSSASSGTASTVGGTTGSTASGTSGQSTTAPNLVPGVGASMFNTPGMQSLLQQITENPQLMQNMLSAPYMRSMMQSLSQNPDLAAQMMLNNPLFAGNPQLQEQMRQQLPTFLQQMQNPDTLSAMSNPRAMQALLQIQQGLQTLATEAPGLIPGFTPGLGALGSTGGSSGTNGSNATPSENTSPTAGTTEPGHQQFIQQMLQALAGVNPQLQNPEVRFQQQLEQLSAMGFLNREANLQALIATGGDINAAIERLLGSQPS
row,effect of a mutation on the interaction,Variant
1,with no effect,C843A

# Variants of: B10
# Settings: with mcm6_human MCM6, Q14566
row,effect of a mutation on the interaction,Variant
1,with no effect,C843A

# Variants of: B11
# Settings: with DAZAP2, Q15038-1
row,effect of a mutation on the interaction,Variant
1,causing an interaction,C820A

# Variants of: B12
# Settings: with DAZAP2, Q15038-1
row,effect of a mutation on the interaction,Variant
1,causing an interaction,C840A
